Test results reported in publication PMC3281904, “Novel Covalently Linked Insulin Dimer Engineered to Investigate the Function of Insulin Dimerization” (PLoS ONE, 2012).
Marks after values point to notes of the source that are not given here.

Legend:
[1] = hexameric insulin, previously determined, ref 65 (HI), 66 (bovine), 67 (porcine), cited from earlier work
Excerpt: Table 2 The experimental parameters determined from the fit in Figure 2 and results previously determined for hexameric insulin of human and porcine origin. | column: Standard Sedimentation Coefficient s20,w, [S]; Standard Diffusion Coefficient D20,w, (×10−7 [cm^2/s]); Molar mass [kg/mole]; Rh [nm]

[2] = biological target: B25C insulin precursor (human) (UniProt P01308); assay: LC/MS; LC/MS of the fermentations; mass of a disulfide-linked dimer

Row | Substance | Standard Sedimentation Coefficient s20,w ([1]; HI probably affected by non-ideality) [S] | Molar mass [1] [kg/mol] | Rh [1] [nm] | Standard Diffusion Coefficient D20,w [1] | stoichiometry N [2]
1 | Bovine insulin: hexameric bovine insulin, literature values | 3.12 | 34.4 | 2.63 | 8.35 ^* ×10−7 cm^2/s | –
2 | B25C insulin precursor (from UniProt P01308 1-29) | – | – | – | – | 2
